# Results reported in patent US20210198341A1 (published 2021).
# Substitutions are numbered along the chain they refer to.
# T1: HPV18-E7 peptide on HLA-DPA1*01:03 / HLA-DPB1*02:01 (human)
# T1 peptide: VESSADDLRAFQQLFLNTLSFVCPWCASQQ
# T2: HPV18-E7 peptide on HLA-DPA1*02:02 / HLA-DPB1*05:01 (human)
# T2 peptide: T1 peptide
# T3: RGS5 peptide on HLA-DRA / HLA-DRB4*01:03 (human)
# T3 peptide: AKEIKIKLGILLQKP
# T4: RGS5 peptide on HLA-DRA / HLA-DRB1*09:01 (human)
# T4 peptide: AKEIKIKLGILLQKP
# T5: RGS5 peptide on HLA-DRA / HLA-DRB1*09:01 (human)
# T5 peptide: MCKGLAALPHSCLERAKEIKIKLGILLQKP
# T6: RGS5 peptide on HLA-DRA / HLA-DRB4*01:03 (human)
# T6 peptide: T5 peptide
# T7: HPV18-E7 peptide on HLA-DRA / HLA-DRB1*09:01 (human)
# T7 peptide: RAFQQLFLNTLSFVCPWCA
# T8: HPV18-E7 peptide on HLA-DRA / HLA-DRB4*01:03 (human)
# T8 peptide: RAFQQLFLNTLSFVCPWCA
# B1: 33D05 (TCR, V domains shown)
# Valpha: AQSVTQLDSHVSVSEGTPVLLRCNYSSSYSPSLFWYVQHPNKGLQLLLKYTSAATLVKGINGFEAEFKKSETSFHLTKPSAHMSDAAEYFCVVSAIGYSSASKIIFGSGTRLSIRP
# Vbeta: DTGVSQNPRHKITKRGQNVTFRCDPISEHNRLYWYRQTLGQGPEFLTYFQNEAQLEKSRLLSDRFSAERPKGSFSTLEIQRTEQGDSAMYLCASSLVAGGPAETQYFGPGTRLLVL
# B2: 09D01 (TCR, V domains shown)
# Valpha: RKEVEQDPGPFNVPEGATVAFNCTYSNSASQSFFWYRQDCRKEPKLLMSVYSSGNEDGRFTAQLNRASQYISLLIRDSKLSDSATYLCVVNMRDSSYKLIFGSGTRLLVRP
# Vbeta: GAVVSQHPSRVICKSGTSVKIECRSLDFQATTMFWYRQFPKKSLMLMATSNEGSKATYEQGVEKDKFLINHASLTLSTLTVTSAHPEDSSFYICSAHERITDTQYFGPGTRLTVL
# B3: 09H05 (TCR, V domains shown)
# Valpha: B2 Valpha with R93K
# Vbeta: GAVVSQHPSRVICKSGTSVKIECRSLDFQATTMFWYRQFPKKSLMLMATSNEGSKATYEQGVEKDKFLINHASLTLSTLTVTSAHPEDSSFYICSALEGTSGKETQYFGPGTRLLVL
# B4: 09E01 (TCR, V domains shown)
# Valpha: GQQVMQIPQYQHVQEGEDFTTYCNSSTTLSNIQWYKQRPGGHPVFLIQLVKSGEVKKQKRLTFQFGEAKKNSSLHITATQTTDVGTYFCAGPGNQFYFGTGTSLTVIP
# Vbeta: NAGVTQTPKFQVLKTGQSMTLQCAQDMNHEYMSWYRQDPGMGLRLIHYSVGAGITDQGEVPNGYNVSRSTTEDFPLRLLSAAPSQTSVYFCASSSWDRDQPQHFGDGTRLSIL
# B5: 10F04 (TCR, V domains shown)
# Valpha: QKEVEQDPGPLSVPEGAIVSLNCTYSNSAFQYFMWYRQYSRKGPELLMYTYSSGNKEDGRFTAQVDKSSKYISLFIRDSQPSDSATYLCAMSPRSGYALNFGKGTSLLVTP
# Vbeta: DGGITQSPKYLFRKEGQNVTLSCEQNLNHDAMYWYRQDPGQGLRLIYYSQIVNDFQKGDIAEGYSVSREKKESFPLTVTSAQKNPTAFYLCASSMDAALGEKLFFGSGTQLSVL
# Key:
# Test in all cases: cytokine release
# [1] = molecular target: T1, HPV18-E7 peptide on HLA-DPA1*01:03 / …
# [2] = molecular target: T2, HPV18-E7 peptide on HLA-DPA1*02:02 / …
# [3] = molecular target: T3, RGS5 peptide on HLA-DRA / HLA-DRB4*01:03
# [4] = molecular target: T4, RGS5 peptide on HLA-DRA / HLA-DRB1*09:01
# [5] = molecular target: T5, RGS5 peptide on HLA-DRA / HLA-DRB1*09:01
# [6] = molecular target: T6, RGS5 peptide on HLA-DRA / HLA-DRB4*01:03
# [7] = molecular target: T7, HPV18-E7 peptide on HLA-DRA / …
# [8] = molecular target: T8, HPV18-E7 peptide on HLA-DRA / …
binder,measurement,setting,value
B1,binding result,[1],recognises
same,binding result,[2],recognises
B2,binding result,[3],recognises
same,binding result,[4],recognises
B3,binding result,[3],recognises
same,binding result,[4],recognises
B4,binding result,[5],recognises
same,binding result,[6],recognises
B5,binding result,[7],recognises
same,binding result,[8],recognises
